In PMC10309634, “Computer simulation approach to the identification of visfatin-derived angiogenic peptides” (PLOS ONE, 2023) one finds number of meshes data, which are given here for one molecule.

In this assay the test system is HUVECs. Nature of the assay: In vitro tube formation assay on Matrigel. The following applies: positive controls, 4 hours on Matrigel, compared to the control group. Format: cell-based, human. As to the method: HUVECs (2×10^4 cells/well) were seeded on a layer of polymerized Matrigel and treated with or without visfatin-derived peptides. The Matrigel culture was incubated at 37°C in the EGM supplemented with EGM-Supplement Mix® containing 1% FBS. After 4 hours, changes in the cell morphology were observed using a phase-contrast microscope and photographed at 40× magnification. Each sample was assayed in duplicate, and independent experiments were repeated three times. Angiogenesis was analyzed with ImageJ software using an angiogenesis analyzer (Bethesda, MD, USA).

B1: visfatin: Commercial recombinant mouse visfatin (Adipogen Life Science), positive control (protein, UniProt Q99KQ4 1-491, looked up)
Nicotinamide …: MNAAAEAEFNILLATDSYKVTHYKQYPPNTSKVYSYFECREKKTENSKVRKVKYEETVFYGLQYILNKYLKGKVVTKEKIQEAKEVYREHFQDDVFNERGWNYILEKYDGHLPIEVKAVPEGSVIPRGNVLFTVENTDPECYWLTNWIETILVQSWYPITVATNSREQKKILAKYLLETSGNLDGLEYKLHDFGYRGVSSQETAGIGASAHLVNFKGTDTVAGIALIKKYYGTKDPVPGYSVPAAEHSTITAWGKDHEKDAFEHIVTQFSSVPVSVVSDSYDIYNACEKIWGEDLRHLIVSRSTEAPLIIRPDSGNPLDTVLKVLDILGKKFPVTENSKGYKLLPPYLRVIQGDGVDINTLQEIVEGMKQKKWSIENVSFGSGGALLQKLTRDLLNCSFKCSYVVTNGLGVNVFKDPVADPNKRSKKGRLSLHRTPAGNFVTLEEGKGDLEEYGHDLLHTVFKNGKVTKSYSFDEVRKNAQLNIEQDVAPH
B1: the number of meshes entry is recorded as “not significantly different”.
